Target: GST-tagged constitutively active Rab1A Q67L (Dictyostelium) (UniProt P34139)
Experiment: pull-down

Chain of UniProt P34139 (P34139 whole entry Q67L): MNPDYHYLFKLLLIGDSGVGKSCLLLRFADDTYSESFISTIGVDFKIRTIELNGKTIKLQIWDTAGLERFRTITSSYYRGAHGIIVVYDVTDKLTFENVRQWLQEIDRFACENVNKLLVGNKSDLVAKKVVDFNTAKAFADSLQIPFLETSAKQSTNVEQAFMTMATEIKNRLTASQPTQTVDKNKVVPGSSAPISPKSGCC

Q: With T7-tagged Roco2 (wild type) (enzyme) as the substance, how does the fold of Roco2 pulled down against wild-type Rab1A read?
A: > 5 fold
